Reference: patent US20140335077A1, “Compositions and Methods for the Treatment of Cancer Using IGF-IR Antagonists and MAPK/ERK Inhibitors” (priority 2013, published 2014)

How the values were obtained:
Format in all cases: cell-based
SKMel5 = assay: PrestoBlue cell viability, anti-IGF-1R antibody with U0126, SKMel5 (melanoma); details: 48 h
Method: (§1) Cells were incubated in 96 well tissue culture plates and cell viability was measured by PrestoBlue cell viability assay (Invitrogen, CA, USA) according to manufacturer's instructions. Fluorescence was measured with excitation at 560 nm and emission at 590 nm. Cell number was calculated from standard curves of fluorescence measurements from known numbers of cells. Triplicate cultures were performed on all experiments.
(§2) The effects of anti-IGF-1R antibodies/MEK inhibitor combination treatment on viability of different types of tumor cells were investigated using PrestoBlue cell viability assay (Invitrogen, CA, USA) according to manufacturer's instructions. (Table 3).
(§3) Cells were incubated in serum free medium for 12 h followed by pretreatment for 60 min without or with 0.5, 1, 3 or 5 μM of the ERK inhibitor U0126, and then treated without or with 100 ng/ml anti-IGF-1R antibodies (Figitumumab or αIR-3 (Calbiochem, US). Cells were incubated in 96 well tissue culture plates for 48 hours and cell viability was measured by PrestoBlue cell viability assay. Fluorescence was measured with excitation at 560 nm and emission at 590 nm. Cell number was calculated from standard curves of fluorescence measurements from known numbers of cells. Triplicate cultures were performed on all experiments. The inhibition induced by anti-IGF-1R antibodies treated cells was calculated as percentage of untreated cells.

OMM 2.3 = assay: PrestoBlue cell viability, anti-IGF-1R antibody with U0126, OMM 2.3 (liver metastasis of uveal melanoma); details: OMM 2.3 cells, 48 h
Method: as §1, §2, §3

OMM 2.5 = assay: PrestoBlue cell viability, anti-IGF-1R antibody with U0126, OMM 2.5 (liver metastasis of uveal melanoma); details: OMM 2.5 cells, 48 h
Method: as §1, §2, §3

[1] = system: Ewing's sarcoma (ES) cell lines: SKES, RDES, CADO, A673 and SKNMC; assay: Cell viability of Ewing's sarcoma cell lines (PrestoBlue); details: 48 h
Method: FIG. 1A-FIG. 1C. Effects of Figitumumab (CP-751871 (CP)) treatment on cell viability in ES cell lines. (A) Cell lysates were prepared from the indicated cell lines and analyzed by WB for total IGF-1R expression and GAPDH as a loading control. […] Data correspond to the mean±SEM from three independent experiments. […] (C) Indicated cells were treated without and with 100 ng/ml CP for 48 h in the absence (SFM) or presence of 10% fetal bovine serum (Serum) and cell viability assayed by PrestoBlue reagent. […] Data correspond to the mean±SEM from three independent experiments. Statistical analysis compared with SKBR3: *P<0.05, **P<0.01, **P<0.001.
FIG. 6A-FIG. 6C. […] Cell lysates were prepared from the same samples and analyzed by WB for β-arrestin1 (βarr1) and GAPDH as a loading control. Signals were quantified by densitometry, normalized to GAPDH and presented as a percentage of the doxycycline untreated cells. […] During the experiment, cell lysates were collected at 10 min after CP stimulation and analyzed by WB for P-ERK and total ERK as a loading control and at 12 h after CP stimulation and analyzed by WB for IGF-1R and GAPDH as a loading control. Signals were quantified by densitometry, normalized to the loading control and presented as a percentage of the CP untreated cells. […]

[2] = U0126 0 μM (60 min pretreatment)
[3] = U0126 0.5 μM (60 min pretreatment)
[4] = U0126 1 μM (60 min pretreatment)
[5] = U0126 3 μM (60 min pretreatment)
[6] = U0126 5 μM (60 min pretreatment)

B1: CP-751,871: anti-IGF-1R antibody figitumumab (Pfizer), IGF-1R antagonist (antibody, chains of the INN, looked up)
heavy: EVQLLESGGGLVQPGGSLRLSCTASGFTFSSYAMNWVRQAPGKGLEWVSAISGSGGTTFYADSVKGRFTISRDNSRTTLYLQMNSLRAEDTAVYYCAKDLGWSDSYYYYYGMDVWGQGTTVTVSSASTKGPSVFPLAPCSRSTSESTAALGCLVKDYFPEPVTVSWNSGALTSGVHTFPAVLQSSGLYSLSSVVTVPSSNFGTQTYTCNVDHKPSNTKVDKTVERKCCVECPPCPAPPVAGPSVFLFPPKPKDTLMISRTPEVTCVVVDVSHEDPEVQFNWYVDGVEVHNAKTKPREEQFNSTFRVVSVLTVVHQDWLNGKEYKCKVSNKGLPAPIEKTISKTKGQPREPQVYTLPPSREEMTKNQVSLTCLVKGFYPSDIAVEWESNGQPENNYKTTPPMLDSDGSFFLYSKLTVDKSRWQQGNVFSCSVMHEALHNHYTQKSLSLSPG
light: DIQMTQFPSSLSASVGDRVTITCRASQGIRNDLGWYQQKPGKAPKRLIYAASRLHRGVPSRFSGSGSGTEFTLTISSLQPEDFATYYCLQHNSYPCSFGQGTKLEIKRTVAAPSVFIFPPSDEQLKSGTASVVCLLNNFYPREAKVQWKVDNALQSGNSQESVTEQDSKDSTYSLSSTLTLSKADYEKHKVYACEVTHQGLSSPVTKSFNRGEC
Percentage inhibition of antibody treated cells (100 ng/ml) (SKMel5; [2]): 22%
Percentage inhibition of antibody treated cells (100 ng/ml) (SKMel5; [3]): 30%
Percentage inhibition of antibody treated cells (100 ng/ml) (SKMel5; [4]): 35%
Percentage inhibition of antibody treated cells (100 ng/ml) (SKMel5; [5]): 39%
Percentage inhibition of antibody treated cells (100 ng/ml) (SKMel5; [6]): 42%
Percentage inhibition of antibody treated cells (100 ng/ml) (OMM 2.3; [2]): 12%
Percentage inhibition of antibody treated cells (100 ng/ml) (OMM 2.3; [3]): 35%
Percentage inhibition of antibody treated cells (100 ng/ml) (OMM 2.3; [4]): 45%
Percentage inhibition of antibody treated cells (100 ng/ml) (OMM 2.3; [5]): 65%
Percentage inhibition of antibody treated cells (100 ng/ml) (OMM 2.3; [6]): 97%
Percentage inhibition of antibody treated cells (100 ng/ml) (OMM 2.5; [2]): 7%
Percentage inhibition of antibody treated cells (100 ng/ml) (OMM 2.5; [3]): 33%
Percentage inhibition of antibody treated cells (100 ng/ml) (OMM 2.5; [4]): 65%
Percentage inhibition of antibody treated cells (100 ng/ml) (OMM 2.5; [5]): 87%
Percentage inhibition of antibody treated cells (100 ng/ml) (OMM 2.5; [6]): 89%
Cell viability (cell number) of ES cell lines ([1]; 100 ng/ml, presence or absence of serum, all ES cell lines): decreased cell number
Sensitivity (cell viability) of combined treatment with MEK inhibitor U0126 versus CP-751,871 alone ([1]; ES cell lines, U0126 pre-treatment 60 min, 100 ng/ml CP): increased sensitivity
